Our source for the Kd values is patent publication US20220372130A1 (MITSUBISHI TANABE PHARMA, published 2022).

Where a chain is given by its changes, count along the chain named.

The target of this assay is T1, human IL-33 protein (residue 112 to residue 270) (ATGen, ILC070) (human, UniProt O95760 112-270).
T1 construct: Bought protein (ATGen, ILC070); also called IL-33 (residue 112 to residue 270)
T1 sequence: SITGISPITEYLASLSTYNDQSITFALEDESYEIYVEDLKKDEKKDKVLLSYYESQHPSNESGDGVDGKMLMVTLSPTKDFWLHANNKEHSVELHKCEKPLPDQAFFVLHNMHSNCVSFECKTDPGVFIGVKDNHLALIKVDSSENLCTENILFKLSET
Nature of the assay: KinExA. The method, then:
Five types of human IL-33 antibodies (A10-1C04, A23-1A05, A25-2CO2, A25-3H04 and A26-1F02) along with mouse sST2-Fc, which is a fusion protein of mouse ST2 and human IgG1 constant region, were prepared with recombinant CHO cells (WO 2015/099175).
On the technique in general: A kinetic exclusion assay measures how much of one partner remains free in solution.

B1: A25-2C02 (antibody, human IgG1, lambda, V domains shown)
VH: EVQLLESGGGLVQPGGSLRLSCAASGFTFSNYYMHWVRQAPGKGLEWVSSISARSSYIYYADSVKGRFTISRDNSKNTLYLQMNSLRAEDTAVYYCARLATRNNAFDIWGQGTLVTVSS
VL: QSVLTQPPSASGTPGQRVTISCSGSSSNIGRNAVNWYQQLPGTAPKLLIYASNMRVSGVPDRFSGSKSGTSASLAISGLRSEDEADYYCWAWDDSQKVGVFGGGTKLTVLG
notes: Prepared with recombinant CHO cells; constant region said to be preferably human IgG1; also called A25-2CO2; human IL-33 antibody
Consider B1, for which the Kd (in general, the concentration at which binding is half-saturated) is 0.7 pM.

B2: A25-3H04 (antibody, human IgG1, lambda, V domains shown)
VH: B1 VH with N31R, R54Q, Y57H, K65E, N103Q
VL: B1 VL with V56R, W90S, G99V
notes: Prepared with recombinant CHO cells; constant region said to be preferably human IgG1; also called human IL-33 antibody; human anti-IL-33 monoclonal antibody
In turn, B2 had a Kd of 7.7 pM.

B3: A26-1F02 (antibody, human IgG1, lambda, V domains shown)
VH: B1 VH with I58L, N103H, N104V
VL: B1 VL with R31N, V56R, S57P, W90E, V98A, G99V
notes: as for B2
As to B3, the Kd was found to be 5.3 pM.

B4: A23-1A05 (antibody, human IgG1, lambda, V domains shown)
VH: B1 VH with S56R, I58H, N103H
VL: B1 VL with R31N, N35S, S57I, W90G, V98A, G99L
notes: as for B2
B4 gave a Kd of 195 pM.

B5: A10-1C04 (antibody, human IgG1, lambda, V domains shown)
VH: EVQLLESGGGLVQPGGSLRLSCAASGFTFSDYYMNWVRQAPGKGLEWVSSISRYSSYIYYADSVKGRFTISRDNSKNTLYLQMNSLRAEDTAVYYCARDIGGMDVWGQGTLVTVSS
VL: QSVLTQPPSASGTPGQRVTISCTGSSSNIGAVYDVHWYQQLPGTAPKLLIYRNNQRPSGVPDRFSGSKSGTSASLAISGLRSEDEADYYCQTYDSSRWVFGGGTKLTVLG
notes: as for B2
In the case of B5, the equilibrium dissociation constant (Kd) was 100 pM.
